The target in one series is T1, zfNAGS-M (Danio rerio, UniProt E7FCP8).
T1 construct: gene nags; mature form, predicted mitochondrial targeting signal removed; N-terminus at Met47 of preprotein; N-terminal polyhistidine tag kept (pET15b); E. coli C41(DE3); predicted 55,498 Da; tetramer
T1 sequence (E7FCP8 46-527): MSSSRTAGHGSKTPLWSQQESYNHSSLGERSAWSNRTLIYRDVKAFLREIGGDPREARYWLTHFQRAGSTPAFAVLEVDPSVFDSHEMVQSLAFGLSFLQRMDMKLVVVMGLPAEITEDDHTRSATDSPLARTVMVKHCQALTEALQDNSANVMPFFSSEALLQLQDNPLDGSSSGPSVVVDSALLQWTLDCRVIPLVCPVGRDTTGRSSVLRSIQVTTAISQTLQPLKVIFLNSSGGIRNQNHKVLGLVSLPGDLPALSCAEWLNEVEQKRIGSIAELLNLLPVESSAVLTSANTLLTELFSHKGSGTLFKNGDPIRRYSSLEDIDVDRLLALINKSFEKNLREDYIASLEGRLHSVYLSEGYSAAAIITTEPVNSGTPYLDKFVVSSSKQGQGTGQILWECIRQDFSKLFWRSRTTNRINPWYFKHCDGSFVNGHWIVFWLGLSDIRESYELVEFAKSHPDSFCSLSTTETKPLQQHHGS
Kind of series: enzymatic activity assay, Michaelis-Menten fit. Format: biochemical. The note with it: no L-arginine. The text has this:
enzymatic activity assay, Michaelis-Menten fit on zfNAGS-M

The next series deals with T2, zfNAGS-C (Danio rerio, UniProt E7FCP8).
T2 construct: gene nags; conserved segment (AAK and NAT domains), targeting signal and variable segment removed; N-terminus at Gly73 of preprotein; N-terminal polyhistidine tag kept (pET15b); E. coli C41(DE3); predicted 52,752 Da
T2 sequence (E7FCP8 73-527): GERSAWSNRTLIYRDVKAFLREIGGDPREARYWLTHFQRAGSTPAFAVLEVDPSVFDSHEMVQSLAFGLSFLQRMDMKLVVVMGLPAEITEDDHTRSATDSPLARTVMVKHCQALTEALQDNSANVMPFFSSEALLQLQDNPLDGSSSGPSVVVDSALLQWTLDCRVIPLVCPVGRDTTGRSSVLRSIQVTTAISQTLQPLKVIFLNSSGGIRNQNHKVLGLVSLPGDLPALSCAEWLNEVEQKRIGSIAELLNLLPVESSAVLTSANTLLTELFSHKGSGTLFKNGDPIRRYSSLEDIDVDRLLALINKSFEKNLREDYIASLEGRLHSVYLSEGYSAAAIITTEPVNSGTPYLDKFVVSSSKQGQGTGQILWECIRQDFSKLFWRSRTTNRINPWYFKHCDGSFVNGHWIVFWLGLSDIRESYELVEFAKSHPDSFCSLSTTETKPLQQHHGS
The series can be described thus: thermofluor with SYPRO Orange. Format: binding. Conditions: L-arginine up to 10 mM; no substrates; pH 7.5 phosphate.

Series [1] addresses mature zebrafish N-acetylglutamate synthase (zfNAGS-M) (zebrafish (Danio rerio)) (UniProt E7FCP8). The series can be described thus: SEC; analytical gel chromatography, Superdex 200 HR 10/30, room temperature, 50 mM potassium phosphate pH 7.5, 300 mM KCl, 20% glycerol, 10 mM beta-mercaptoethanol, 0.006% Triton X-100, no L-arginine; 100 ul loaded at 0.5-1.3 mg/ml (zfNAGS-M) or 0.5-2.0 mg/ml (zfNAGS-C).

Substrate in series [2]: N[C@@H](CCC(=O)O)C(=O)O
The series can be described thus: enzymatic activity assay, Michaelis-Menten fit. Format: biochemical, Danio rerio. The note with it: 4 mM AcCoA; no L-arginine. The text has this: (§1) enzymatic activity assay, Michaelis-Menten fit on zfNAGS-C

Substrate in series [3]: CC(=O)SCCNC(=O)CCNC(=O)[C@H](O)C(C)(C)COP(=O)(O)OP(=O)(O)OC[C@H]1O[C@@H](n2cnc3c(N)ncnc32)[C@H](O)[C@@H]1OP(=O)(O)O
The series can be described thus: enzymatic activity assay, Michaelis-Menten fit. Conditions: 15 mM L-glutamate; no L-arginine. The class given is biochemical, Danio rerio.
From the text: as §1

Data on five molecules can be found in publication PMC3899043, “Expression Pattern and Biochemical Properties of Zebrafish N-Acetylglutamate Synthase” (PLoS ONE, 2014).

Where two headings read alike, the source gives them in different places.

`CC(=O)SCCNC(=O)CCNC(=O)[C@H](O)C(C)(C)COP(=O)(O)OP(=O)(O)OC[C@H]1O[C@@H](n2cnc3c(N)ncnc32)[C@H](O)[C@@H]1OP(=O)(O)O` [AcCoA]: the Km at zfNAGS-M (15 mM L-glutamate, read-out: AcCoA / Km ^app) was 220 ± 30 µM.
With `N=C(N)NCCC[C@H](N)C(=O)O` [L-arginine], at zfNAGS-C, the “thermofluor with SYPRO Orange” value was “Addition of L-arginine to both zfNAGS-M and zfNAGS-C resulted in changes”.
For `N[C@@H](CCC(=O)O)C(=O)O` [L-glutamate], on zfNAGS-M (4 mM AcCoA, read-out: Glutamate / Km ^app), the Km came out at 1130 ± 130 µM.
With “mature zebrafish N-acetylglutamate synthase (zfNAGS-M) (from UniProt E7FCP8 47-527) (enzyme)”, the stoichiometry N in series [1] was 4.

B1: zfNAGS-C (Danio rerio) (protein)
chain: T2 sequence (E7FCP8 73-527)
notes: conserved segment (AAK and NAT domains), targeting signal and variable segment removed; N-terminus at Gly73 of preprotein; N-terminal polyhistidine tag kept (pET15b); E. coli C41(DE3); predicted 52,752 Da
As for B1, in series [2], the Km turned out to be 1120 ± 210 µM and the Vmax was 39.5 µmol/min/mg. In series [3], the Km is 230 ± 60 µM and the Vmax worked out at 32.2 µmol/min/mg.
